The text below walks through data of patent US20190269788A1.

Experiment [1] deals with soluble recombinant human IGF1R hetero-tetramere with C-terminal 10-His tag (R&D Systems catalogue number 305-GR-50) (human) (UniProt P08069). The experiment can be described thus: SPR Biacore X100, Ln(2)/koff. On the technique in general: Surface plasmon resonance follows binding to a sensor surface in real time, without labels.
The target is the same in experiment [2]. The experiment can be described thus: SPR Biacore X100, His-captured h-IGF1R around 600 RU, mean of four experiments.

What is called Kd is the free concentration of one partner at which half of the binding sites on the other are occupied at equilibrium, for simple one-to-one binding.

B1: hz208F2 VH3/VL3 (antibody, human IgG1, kappa, V domains shown)
VH: QVQLVQSGAEVKKPGASVKMSCKASGYTFTSYYIYWVKQAPGQGLEWLGWIWPGDGSTKYNEKFQGRVTLTADKSSNTAYMFLSSLRSEDTAVYFCASPMITPNYAMDYWGQGTLVTVSS
VL: DIQMTQSPSSLSASVGDRVTISCRASQDISKYLNWYQQKPGKAPKLLIYYTSRLHSGVPSRFSGRGSGTDYSLTISNLQPEDFATYFCQQGSTLPYTFGGGTKVEIKR
Take B1: in experiment [1], the half-life of the complex lay in the range of 2 to 3 h. In experiment [2], the Kd turned out to be 60 pM.
